Source: the supplement of paper PMC10065799, “High-throughput profiling of sequence recognition by tyrosine kinases and SH2 domains using bacterial peptide display” (eLife, 2023)

Key:
[1] = system: AncSZ; assay: phosphorylation enrichment, bacterial display (enrichment ratio); higher = better substrate or ligand; peptides without Tyr show the background
[2] = molecular target: EPHB1 (UniProt P54762); assay: as above
[3] = molecular target: EPHB2 (UniProt P29323); assay: as above
[4] = molecular target: FGFR1 (UniProt P11362); assay: as above
Sequence of FGFR1 (P11362 whole entry, looked up): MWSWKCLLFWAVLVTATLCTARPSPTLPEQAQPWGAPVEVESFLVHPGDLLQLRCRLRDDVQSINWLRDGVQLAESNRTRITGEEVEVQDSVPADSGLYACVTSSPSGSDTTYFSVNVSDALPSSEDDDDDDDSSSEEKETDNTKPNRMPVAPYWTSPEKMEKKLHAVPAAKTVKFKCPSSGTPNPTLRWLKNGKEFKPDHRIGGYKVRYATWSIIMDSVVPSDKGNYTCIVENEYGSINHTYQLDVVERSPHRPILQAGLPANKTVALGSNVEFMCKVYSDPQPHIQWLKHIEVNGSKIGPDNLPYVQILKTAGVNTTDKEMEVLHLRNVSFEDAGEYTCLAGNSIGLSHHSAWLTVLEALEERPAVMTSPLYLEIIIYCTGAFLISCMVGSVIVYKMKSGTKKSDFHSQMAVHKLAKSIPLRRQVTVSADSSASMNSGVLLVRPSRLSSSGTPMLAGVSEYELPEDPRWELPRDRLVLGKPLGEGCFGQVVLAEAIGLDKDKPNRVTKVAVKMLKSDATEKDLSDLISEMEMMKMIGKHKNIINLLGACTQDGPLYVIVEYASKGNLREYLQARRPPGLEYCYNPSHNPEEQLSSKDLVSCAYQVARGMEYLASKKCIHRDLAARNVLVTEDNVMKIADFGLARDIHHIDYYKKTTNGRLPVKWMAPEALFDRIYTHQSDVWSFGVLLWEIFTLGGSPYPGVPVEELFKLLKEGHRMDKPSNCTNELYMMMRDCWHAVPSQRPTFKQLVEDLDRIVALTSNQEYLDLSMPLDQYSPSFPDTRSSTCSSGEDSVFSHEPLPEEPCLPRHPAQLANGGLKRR

[5] = molecular target: FGFR3 (UniProt P22607); assay: as above
Sequence of FGFR3 (P22607 whole entry, looked up): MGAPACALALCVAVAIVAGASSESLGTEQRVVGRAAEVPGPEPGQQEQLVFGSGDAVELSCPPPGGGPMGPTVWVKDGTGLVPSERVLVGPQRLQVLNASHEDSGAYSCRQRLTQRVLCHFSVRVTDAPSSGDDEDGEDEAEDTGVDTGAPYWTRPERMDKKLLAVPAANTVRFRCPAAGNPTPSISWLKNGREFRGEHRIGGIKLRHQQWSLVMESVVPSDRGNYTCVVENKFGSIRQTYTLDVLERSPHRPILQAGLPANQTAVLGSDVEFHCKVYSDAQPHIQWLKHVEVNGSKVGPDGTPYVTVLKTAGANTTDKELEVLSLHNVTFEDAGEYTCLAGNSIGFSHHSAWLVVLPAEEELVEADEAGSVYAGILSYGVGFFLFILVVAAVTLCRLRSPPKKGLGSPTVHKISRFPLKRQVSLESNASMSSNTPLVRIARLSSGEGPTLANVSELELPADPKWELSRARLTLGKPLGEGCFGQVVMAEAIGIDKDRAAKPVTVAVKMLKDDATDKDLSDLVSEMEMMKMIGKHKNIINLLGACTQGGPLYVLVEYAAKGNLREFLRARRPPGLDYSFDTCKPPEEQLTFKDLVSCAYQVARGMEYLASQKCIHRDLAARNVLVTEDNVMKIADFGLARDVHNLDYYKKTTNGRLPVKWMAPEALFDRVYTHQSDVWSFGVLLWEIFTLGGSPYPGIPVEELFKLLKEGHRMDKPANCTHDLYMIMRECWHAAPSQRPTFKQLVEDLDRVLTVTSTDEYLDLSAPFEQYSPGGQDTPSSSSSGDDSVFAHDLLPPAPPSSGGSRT

[6] = system: Fer (mouse); assay: as above
[7] = molecular target: Fes (UniProt P07332); assay: as above
Sequence of Fes (P07332 whole entry, looked up): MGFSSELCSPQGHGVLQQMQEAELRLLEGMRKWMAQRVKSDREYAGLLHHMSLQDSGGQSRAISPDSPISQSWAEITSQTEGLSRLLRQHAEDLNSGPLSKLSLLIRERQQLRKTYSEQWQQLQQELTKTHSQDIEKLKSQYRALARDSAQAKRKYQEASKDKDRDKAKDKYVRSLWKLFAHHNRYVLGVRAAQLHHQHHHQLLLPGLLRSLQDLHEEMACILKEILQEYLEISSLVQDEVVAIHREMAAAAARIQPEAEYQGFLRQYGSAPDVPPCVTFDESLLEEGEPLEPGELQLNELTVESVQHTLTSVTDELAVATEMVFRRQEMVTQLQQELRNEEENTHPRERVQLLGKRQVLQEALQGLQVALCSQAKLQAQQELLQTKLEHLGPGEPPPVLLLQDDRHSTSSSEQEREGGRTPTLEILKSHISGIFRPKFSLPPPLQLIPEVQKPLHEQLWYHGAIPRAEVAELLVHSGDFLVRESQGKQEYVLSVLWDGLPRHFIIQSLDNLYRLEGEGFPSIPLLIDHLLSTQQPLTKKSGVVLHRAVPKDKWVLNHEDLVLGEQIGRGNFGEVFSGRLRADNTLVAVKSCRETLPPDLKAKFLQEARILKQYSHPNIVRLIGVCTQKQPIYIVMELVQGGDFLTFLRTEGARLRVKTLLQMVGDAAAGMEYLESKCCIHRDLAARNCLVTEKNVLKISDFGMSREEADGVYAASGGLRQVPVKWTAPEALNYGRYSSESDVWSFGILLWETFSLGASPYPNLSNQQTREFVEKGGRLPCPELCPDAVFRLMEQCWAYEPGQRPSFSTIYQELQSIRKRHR

[8] = molecular target: Fyn (UniProt P06241); assay: as above
Sequence of Fyn (P06241 whole entry, looked up): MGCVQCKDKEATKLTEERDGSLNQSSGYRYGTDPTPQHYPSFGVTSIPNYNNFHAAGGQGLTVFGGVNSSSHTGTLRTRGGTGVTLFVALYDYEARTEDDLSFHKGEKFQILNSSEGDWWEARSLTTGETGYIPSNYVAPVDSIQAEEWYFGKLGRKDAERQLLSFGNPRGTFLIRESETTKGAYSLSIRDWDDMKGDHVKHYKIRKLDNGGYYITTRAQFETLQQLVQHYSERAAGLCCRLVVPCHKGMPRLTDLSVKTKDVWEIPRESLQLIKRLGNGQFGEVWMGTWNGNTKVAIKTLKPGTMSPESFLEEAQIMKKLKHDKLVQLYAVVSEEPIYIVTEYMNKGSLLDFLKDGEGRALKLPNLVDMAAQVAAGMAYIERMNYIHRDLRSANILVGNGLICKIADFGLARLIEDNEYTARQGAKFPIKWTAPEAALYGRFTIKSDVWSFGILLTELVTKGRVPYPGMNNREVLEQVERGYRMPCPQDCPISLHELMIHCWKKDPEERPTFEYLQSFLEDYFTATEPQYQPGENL

[9] = molecular target: Hck (UniProt P08631); assay: as above
Sequence of Hck (P08631 whole entry, looked up): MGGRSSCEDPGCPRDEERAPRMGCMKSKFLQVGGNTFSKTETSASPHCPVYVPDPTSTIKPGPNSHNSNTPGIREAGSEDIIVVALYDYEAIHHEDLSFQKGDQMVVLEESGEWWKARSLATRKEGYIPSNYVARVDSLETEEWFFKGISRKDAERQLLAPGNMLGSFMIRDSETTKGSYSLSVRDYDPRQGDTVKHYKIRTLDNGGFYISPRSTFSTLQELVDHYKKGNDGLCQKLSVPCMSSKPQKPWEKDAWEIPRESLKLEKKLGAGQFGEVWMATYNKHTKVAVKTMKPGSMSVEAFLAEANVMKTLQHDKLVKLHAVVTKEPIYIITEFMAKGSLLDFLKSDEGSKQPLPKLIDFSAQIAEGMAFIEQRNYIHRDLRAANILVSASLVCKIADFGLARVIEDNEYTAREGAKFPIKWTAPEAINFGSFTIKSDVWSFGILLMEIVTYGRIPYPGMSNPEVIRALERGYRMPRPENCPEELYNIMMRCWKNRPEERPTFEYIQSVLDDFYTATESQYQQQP

[10] = molecular target: Jak2 (UniProt O60674); assay: as above
[11] = molecular target: MERTK (UniProt Q12866); assay: as above
[12] = system: c-Abl (mouse); assay: as above
[13] = system: c-Src; assay: as above
[14] = molecular target: Grb2 SH2 (UniProt P62993); assay: SH2 binding enrichment of the phosphorylated peptide, bacterial display (enrichment ratio); higher = better substrate or ligand; peptides without Tyr show the background
Sequence of Grb2 SH2 (P62993 whole entry, looked up): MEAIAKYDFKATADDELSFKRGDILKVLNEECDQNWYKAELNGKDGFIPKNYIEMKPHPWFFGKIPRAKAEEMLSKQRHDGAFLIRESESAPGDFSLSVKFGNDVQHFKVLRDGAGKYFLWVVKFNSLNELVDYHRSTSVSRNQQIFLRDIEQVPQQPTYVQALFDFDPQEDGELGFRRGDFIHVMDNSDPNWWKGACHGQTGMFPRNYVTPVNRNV

[15] = molecular target: SHP2-C SH2; assay: as above
[16] = molecular target: c-Src SH2; assay: as above
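Throughout, for SH2 binding enrichment of the phosphorylated peptide, bacterial display: peptide library displayed on the E. coli surface as eCPX fusions, selected cells deep-sequenced, score is each peptide's frequency after selection divided by its frequency in the input.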
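Throughout, for phosphorylation enrichment, bacterial display: 11-residue human phosphosite peptides and single-mutation variants displayed on the E. coli surface, counted by deep sequencing, each peptide's frequency after selection divided by its frequency in the unselected input library; frequency after pTyr selection over input frequency; kinase dosed for 20-30% of maximal phosphorylation in three min.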

Sequence of EPHB2 (P29323 whole entry, looked up): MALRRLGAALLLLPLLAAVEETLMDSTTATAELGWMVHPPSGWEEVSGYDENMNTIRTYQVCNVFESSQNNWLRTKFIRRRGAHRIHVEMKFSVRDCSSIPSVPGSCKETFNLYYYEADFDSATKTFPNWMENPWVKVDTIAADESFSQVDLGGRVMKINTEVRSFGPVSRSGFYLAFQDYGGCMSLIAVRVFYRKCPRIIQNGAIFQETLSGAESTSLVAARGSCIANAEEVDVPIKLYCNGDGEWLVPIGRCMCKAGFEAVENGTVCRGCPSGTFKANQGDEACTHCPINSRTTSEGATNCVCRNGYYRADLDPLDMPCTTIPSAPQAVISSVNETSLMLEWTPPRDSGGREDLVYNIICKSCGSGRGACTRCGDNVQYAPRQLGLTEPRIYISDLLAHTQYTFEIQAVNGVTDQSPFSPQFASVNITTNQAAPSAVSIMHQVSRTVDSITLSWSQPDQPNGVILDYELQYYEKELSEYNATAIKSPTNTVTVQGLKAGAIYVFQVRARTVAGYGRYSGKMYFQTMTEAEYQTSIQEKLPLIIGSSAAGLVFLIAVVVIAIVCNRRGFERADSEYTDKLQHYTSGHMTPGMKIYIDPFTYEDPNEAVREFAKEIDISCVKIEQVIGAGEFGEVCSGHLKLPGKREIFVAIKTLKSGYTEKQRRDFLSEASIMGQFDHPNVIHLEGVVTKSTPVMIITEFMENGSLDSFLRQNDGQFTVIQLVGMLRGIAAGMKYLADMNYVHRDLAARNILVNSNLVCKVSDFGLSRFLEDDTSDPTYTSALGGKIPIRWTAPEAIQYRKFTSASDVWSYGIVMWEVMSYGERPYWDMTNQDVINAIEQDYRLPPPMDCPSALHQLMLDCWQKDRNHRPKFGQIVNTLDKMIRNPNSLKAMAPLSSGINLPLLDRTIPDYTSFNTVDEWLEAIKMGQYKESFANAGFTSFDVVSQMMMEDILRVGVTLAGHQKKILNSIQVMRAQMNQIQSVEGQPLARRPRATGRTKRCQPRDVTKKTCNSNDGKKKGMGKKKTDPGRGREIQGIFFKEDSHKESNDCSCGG

Sequence | phosphorylation enrichment [1] | phosphorylation enrichment [2] | phosphorylation enrichment [3] | phosphorylation enrichment [4] | phosphorylation enrichment [5] | phosphorylation enrichment [6] | phosphorylation enrichment [7] | phosphorylation enrichment [8] | phosphorylation enrichment [9] | phosphorylation enrichment [10] | phosphorylation enrichment [11] | phosphorylation enrichment [12] | phosphorylation enrichment [13] | SH2 binding enrichment [14] | SH2 binding enrichment [15] | SH2 binding enrichment [16]
DQVEQCKKELE [LMNA_Y259_Y259C] | 1.2 | 0.59 | 0.625 | 0.528 | 0.733 | 0.518 | 1.27 | 0.52 | 0.703 | 1.1 | 0.49 | 0.746 | 0.562 | 0.79 | 0.937 | 0.524
DSFATYFRWVL [H2BW1_Y84_R87W] | 1.53 | 1.85 | 3.54 | 1.98 | 1.98 | 2.46 | 1.47 | 2.76 | 5.6 | 5.48 | 4.5 | 1.04 | 3.21 | 1.28 | 1.32 | 0.953
DSFSSYCNAVA [SLC20A2_Y436_YF] | 1.24 | 0.642 | 0.826 | 0.497 | 0.812 | 0.608 | 1.11 | 0.509 | 0.544 | 1.06 | 0.503 | 0.801 | 0.579 | 2 | 1.18 | 1.13
DVMDLYKTLRG [NR3C1_Y30_F29L] | 0.773 | 0.483 | 0.535 | 0.585 | 0.861 | 0.381 | 0.776 | 0.437 | 0.904 | 0.517 | 0.431 | 0.521 | 0.421 | 0.724 | 0.789 | 0.738
DVRQEYSGMIL [PLXND1_Y616_P617S] | 0.795 | 0.432 | 0.531 | 0.504 | 0.565 | 0.567 | 0.891 | 0.434 | 0.498 | 0.678 | 0.35 | 0.484 | 0.477 | 0.696 | 0.39 | 0.536
DVSVVYSEVKT [FCRL4_Y493] | 0.991 | 0.631 | 0.592 | 0.775 | 0.751 | 4.14 | 1.05 | 4.99 | 5.21 | 1.07 | 0.834 | 1.22 | 4.13 | 0.789 | 11.9 | 1.11
DYDHSYYFIAT [ESD_Y262_G257D] | 2.9 | 5.16 | 3.27 | 11.7 | 9.9 | 1.49 | 1.13 | 1.48 | 2.24 | 7.22 | 3.77 | 0.877 | 1.81 | 0.684 | 0.589 | 0.456
DYNPNYCFAGK [ALK_Y1096] | 1.82 | 2.62 | 1.07 | 0.641 | 0.778 | 0.735 | 1.03 | 0.607 | 0.563 | 0.873 | 0.906 | 0.812 | 0.63 | 0.799 | 0.788 | 0.532
DYTEAYNPKIK [CLK1_Y305] | 1.02 | 0.422 | 0.453 | 0.624 | 0.592 | 0.358 | 0.913 | 0.456 | 0.596 | 0.641 | 0.419 | 0.678 | 0.483 | 0.813 | 0.584 | 1.43
EATKGYPDDPT [G6PD_Y322_L323P] | 0.901 | 0.501 | 0.673 | 0.465 | 0.609 | 0.483 | 1.05 | 0.479 | 0.508 | 1.07 | 0.515 | 0.786 | 0.493 | 0.765 | 0.538 | 0.485
ECKEAYHEGEC [PRKN_Y372] | 1.32 | 0.524 | 0.638 | 0.626 | 0.652 | 0.498 | 1.26 | 0.48 | 0.654 | 1.18 | 0.456 | 0.761 | 0.541 | 0.82 | 0.577 | 0.646
EDDIIYTQDFT [STK11_Y362] | 1.41 | 0.869 | 0.647 | 0.652 | 0.821 | 0.655 | 1.37 | 0.796 | 0.742 | 1.29 | 0.631 | 0.957 | 1.11 | 0.767 | 0.734 | 0.554
EDGFAYVPLKD [PRIM2_Y208] | 1.25 | 0.567 | 0.649 | 0.501 | 0.759 | 0.492 | 1.27 | 0.479 | 0.519 | 1.18 | 0.42 | 0.86 | 0.523 | 0.992 | 0.563 | 0.55
EDSEFYKAFEE [CASQ2_Y179_YF] | 1.2 | 0.534 | 0.659 | 0.482 | 0.739 | 0.4 | 1.21 | 0.442 | 0.543 | 1.07 | 0.454 | 0.693 | 0.567 | 0.767 | 0.671 | 0.506
EEETDYTPVWC [UROD_Y30_G25E] | 1.58 | 0.689 | 0.589 | 0.554 | 0.876 | 0.771 | 1.25 | 0.484 | 0.578 | 1.16 | 0.504 | 0.937 | 0.503 | 0.997 | 0.791 | 0.638
EEGESHVCSSD [DCX_Y125_Y125H] | 0.96 | 0.465 | 0.545 | 0.518 | 0.573 | 0.519 | 1.07 | 0.54 | 0.497 | 0.945 | 0.528 | 0.673 | 0.525 | 1.25 | 0.83 | 0.623
EEGNPYFSSTR [MCCC2_Y520_A524T_YF] | 0.865 | 0.509 | 0.527 | 0.484 | 0.621 | 0.413 | 0.814 | 0.505 | 0.595 | 0.823 | 0.349 | 0.585 | 1.14 | 0.884 | 0.588 | 0.549

Sequence | phosphorylation enrichment [1] | phosphorylation enrichment [2] | phosphorylation enrichment [3] | phosphorylation enrichment [4] | phosphorylation enrichment [5] | phosphorylation enrichment [6] | phosphorylation enrichment [7] | phosphorylation enrichment [8] | phosphorylation enrichment [9] | phosphorylation enrichment [10] | phosphorylation enrichment [11] | phosphorylation enrichment [12] | phosphorylation enrichment [13] | SH2 binding enrichment [14] | SH2 binding enrichment [15] | SH2 binding enrichment [16]
EEQKRYFNAMK [SCN5A_Y1494_K1493R_YF] | 0.591 | 0.353 | 0.445 | 0.49 | 0.46 | 0.424 | 0.645 | 0.348 | 0.451 | 0.673 | 0.41 | 0.446 | 0.435 | 1.04 | 1 | 0.541
EEQKRYYNAMK [SCN5A_Y1494_K1493R] | 0.623 | 0.512 | 0.49 | 0.511 | 0.48 | 0.436 | 0.648 | 0.471 | 0.46 | 0.479 | 0.351 | 0.352 | 0.327 | 1.32 | 0.522 | 0.813
EESREYDRLYE [PIK3R1_Y463_K459E] | 1.42 | 0.761 | 0.7 | 0.708 | 1.19 | 0.641 | 1.44 | 0.751 | 0.865 | 1.45 | 0.465 | 1.02 | 0.714 | 0.671 | 0.701 | 7.14
EGTATYAAAVL [JUP_Y644] | 0.587 | 0.561 | 1.24 | 0.394 | 0.458 | 1.06 | 0.661 | 0.858 | 0.987 | 0.501 | 0.438 | 0.639 | 0.897 | 0.847 | 0.722 | 0.493
EHAGEYGAEAL [HBA1_Y25_A20E] | 0.832 | 0.423 | 0.543 | 0.595 | 0.681 | 0.427 | 0.896 | 0.489 | 0.592 | 0.693 | 0.455 | 0.612 | 0.468 | 0.865 | 0.769 | 0.674
EKKDVYKTGEQ [CFH_Y1008_A1010T] | 0.7 | 0.394 | 0.411 | 0.478 | 0.524 | 0.447 | 0.663 | 0.471 | 0.561 | 0.437 | 0.382 | 0.42 | 0.438 | 0.771 | 0.494 | 0.376
EMFNPCYGLFE [NEDD4L_Y679_Y679C] | 1.04 | 0.489 | 0.689 | 0.543 | 0.713 | 1.14 | 1.49 | 4.58 | 1.43 | 1.2 | 0.765 | 1.03 | 5.2 | 0.918 | 0.803 | 0.643
EMQAAYQKVVA [HBD_Y131_Q126E] | 0.614 | 0.393 | 0.42 | 0.405 | 0.574 | 0.446 | 0.656 | 0.472 | 0.535 | 0.581 | 0.399 | 0.421 | 0.391 | 0.688 | 0.498 | 0.65
ENQEIYQKAFD [KPNA1_Y493] | 1.43 | 0.579 | 0.576 | 0.522 | 0.643 | 0.686 | 1.15 | 0.866 | 1.2 | 1.08 | 0.616 | 1.03 | 1.45 | 0.83 | 0.737 | 0.47
EPAVLYNLKER [MYH7_Y103_D107E] | 0.804 | 0.354 | 0.547 | 0.506 | 0.524 | 0.332 | 0.854 | 0.511 | 0.72 | 0.74 | 0.388 | 0.687 | 0.694 | 0.773 | 0.653 | 0.486
EQFELHCEMGS [CBL_Y371_Y371H_YF] | 1.17 | 0.71 | 0.623 | 0.496 | 0.802 | 0.577 | 1.49 | 0.523 | 0.58 | 1.25 | 0.526 | 0.995 | 0.528 | 0.707 | 0.685 | 0.606
EQKKYYNAMKN [SCN5A_Y1495_K1500N] | 0.507 | 0.388 | 0.335 | 0.336 | 0.382 | 0.354 | 0.536 | 0.292 | 0.405 | 0.489 | 0.356 | 0.489 | 0.359 | 0.664 | 0.809 | 0.431
EQKRFYNAMKK [SCN5A_Y1495_K1493R_YF] | 0.69 | 0.562 | 0.309 | 0.369 | 0.415 | 0.35 | 0.711 | 0.363 | 0.342 | 0.562 | 0.387 | 0.698 | 0.441 | 0.772 | 0.758 | 0.86
EQMASYFGHSV [ITGA2B_Y319] | 0.662 | 0.44 | 0.488 | 0.576 | 0.59 | 0.584 | 0.663 | 0.549 | 0.452 | 0.842 | 0.425 | 0.573 | 0.553 | 0.758 | 0.596 | 0.491
ERDYTYEELLN [EIF2S2_Y176] | 1.31 | 0.78 | 0.718 | 0.579 | 0.855 | 0.65 | 1.28 | 0.886 | 1.32 | 1.18 | 0.426 | 0.67 | 0.807 | 0.823 | 0.737 | 1.1
ESMQSYDLDFP [UNC13B_Y243_D238E_YF] | 0.909 | 0.459 | 0.5 | 0.568 | 0.63 | 0.506 | 1.04 | 0.51 | 0.46 | 0.777 | 0.441 | 0.538 | 0.49 | 0.824 | 0.534 | 0.648
